In publication PMC8233224, “Crystal structure of a homotrimeric verrucomicrobial exo-β-1,4-mannosidase active in the hindgut of the wood-feeding termite Reticulitermes flavipes” (Journal of Structural Biology: X, 2021):
Values joined by “and” are separate entries in the source; they are usually repeats but may differ in a detail not shown here. Equal entries are not always repeated.

Key:
[1] = tested on: T1, O=[N+]([O-])c1ccc(O[C@@H]2O[C@H](CO)[C@@H](O)[C@H](O)[C@@H]2O)cc1; assay: purified protein; type: biochemical, Opitutaceae bacterium; details: 50 mM sodium phosphate pH 6.0, 40 °C, 10 min, apparent
T1 construct: full length, 594 residues, no secretion signal; C-terminal non-cleavable His6 tag (pNIC-CH2), E. coli BL21(DE3) T1R; synthetic gene; ESI-MS 66824 g/mol; homotrimer ~200 kDa; N-terminus MTIDSSGY from primer

[2] = biological target: exo-β-1,4-mannosidase from Opitutaceae bacterium strain TAV5 (Op5Man5) (Opitutaceae bacterium strain TAV5); assay: crystal structure; crystals from 0.1 M phosphorus citrate pH 4.2, 30% ethanol, 5% PEG 1000; space group P212121; 2.2 Å
[3] = biological target: exo-β-1,4-mannosidase from Opitutaceae bacterium strain TAV5 (Op5Man5) (Opitutaceae bacterium strain TAV5); assay: cross-linking; glutaraldehyde 0.4% w/v, protein 0.2 mg/ml, 37 °C, 0 to 60 min, SDS-PAGE (15%)
[4] = biological target: exo-β-1,4-mannosidase from Opitutaceae bacterium strain TAV5 (Op5Man5) (Opitutaceae bacterium strain TAV5); assay: SEC; Superdex 200 10/300 GL, 20 mM Tris-HCl pH 8.0 and 8.5 with 300 mM NaCl, 4 °C, standard curve of reference proteins
[5] = biological target: exo-β-1,4-mannosidase from Opitutaceae bacterium strain TAV5 (Op5Man5) (Opitutaceae bacterium strain TAV5); assay: SEC; Superdex 200 10/300 GL, 20 mM buffer with 300 mM NaCl, pH 5.5-6.5 (sodium acetate pH 5.5; MES pH 6.0 and 6.5), 4 °C, standard curve of reference proteins
[6] = biological target: exo-β-1,4-mannosidase from Opitutaceae bacterium strain TAV5 (Op5Man5) (Opitutaceae bacterium strain TAV5); assay: SEC; Superdex 200 10/300 GL, 20 mM HEPES pH 7.5 with 300 mM NaCl, 4 °C, standard curve of reference proteins
[7] = biological target: exo-β-1,4-mannosidase from Opitutaceae bacterium strain TAV5 (Op5Man5) (Opitutaceae bacterium strain TAV5); assay: cryo-EM structure; single particle cryo-EM at pH 7.5 of pooled SEC fractions with the trimeric species, 0.12 mg/ml; 3.7 Å map

## Op5Man5 (Opitutaceae bacterium)
[1]
  Km: 1000 ± 130 µM
  kcat: 239 ± 7.7 s⁻¹
  kcat/Km: 239000 ± 7700 M⁻¹ s⁻¹

## exo-β-1,4-mannosidase from Opitutaceae bacterium strain TAV5 (Op5Man5) (enzyme)
[2]
  stoichiometry N: 3
[3]
  stoichiometry N: 3 and 6
[4]
  stoichiometry N: 3
[5]
  stoichiometry N: 3
[6]
  stoichiometry N: 3 and 6
[7]
  stoichiometry N: 3
